Results: article PMC9976613 (Journal of structural biology, 2018)

Molecular target: the molecule itself
Assay: crystal structure

B1: His6-DcrBΔ37 (domain or fragment, Salmonella enterica, UniProt Q7CPJ3 38-185, looked up)
chain: ASGQPISLMDGKLSFSLPADMTDQSGKLGTQANNMHVYSDPTGQKAVIVIVGDNTDEALPVLANRLLEQQRSRDPQLQVVTNKSIELKGHTLQQLDSIISAKGQTAYSSIVLGKVDNQLLTIQVTLPADNQQKAQTTAENIINTLVIK
B1: binds.
